According to the supplement of paper PMC10899765:

How the values were obtained:
Details in all cases: 20 nM; 72 h
MCF10A [1] = test: percent viability (nuclei count relative to siNT); higher = more viable cells
Description: (§1)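 After 72 h, cells were fixed and stained with Hoechst and anti-fibrillarin, and nucleoli per nucleus were counted with CellProfiler. Values are plate-adjusted percent effect for the one-nucleolus and 5+ nucleoli phenotypes, normalised to siNT (0%) and to the positive controls siNOL11 or siKIF11 (100%), as the mean of biological triplicates. Percent viability is the nuclei count relative to siNT.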

MCF10A [2] = test: 5+ nucleoli phenotype percent effect (relative to siNT 0% and siKIF11 100%); higher = more cells with five or more nucleoli
Description: as §1

MCF10A [3] = test: one-nucleolus phenotype percent effect (relative to siNT 0% and siNOL11 100%); higher = more cells with one nucleolus (ribosome biogenesis inhibition)
Description: as §1

Row | Sequence | percent viability (MCF10A [1]) [%] | 5+ nucleoli phenotype percent effect (MCF10A [2]) [%] | one-nucleolus phenotype percent effect (MCF10A [3]) [%]
1 | UCACCUGACCUCCCAUGCCUGU [hsa-miR-3622a-3p] | 103 | 33.1 | -15.8
2 | UCACCUGAGCUCCCGUGCCUG [hsa-miR-3622b-3p] | 107 | 29.9 | -20.9
3 | UCACCUGGCUGGCCCGCCCAG [hsa-miR-6765-3p] | 63.1 | 30.1 | -20.5
4 | UCACGCGGAGAGAUGGCUUUG [hsa-miR-3186-3p] | 20.7 | -13.4 | 11.3
5 | UCACUACCUGACAAUACAGU [hsa-miR-4999-3p] | 52.7 | 0.698 | -25.2
6 | UCACUCCUCUCCUCCCGUCUU [hsa-miR-483-3p] | 45.3 | -26.9 | 16.3
7 | UCACUCUCACCUUGCUUUGC [hsa-miR-4639-3p] | 63 | 3.2 | -11.5
8 | UCACUGUUCAGACAGGCGGA [hsa-miR-1208] | 112 | 20.6 | -21.6
9 | UCAGAACAAAUGCCGGUUCCCAGA [hsa-miR-589-3p] | 115 | 5.52 | -20.8
10 | UCAGAUGAUCUAAAGGCCUAUA [hsa-miR-1245b-3p] | 34.5 | -4.77 | 9.29
11 | UCAGCAAACAUUUAUUGUGUGC [hsa-miR-545-3p] | 124 | 27.8 | -21.8
12 | UCAGCACCAGGAUAUUGUUGGAG [hsa-miR-3065-3p] | 67.2 | 62.3 | -25.2
13 | UCAGCAGGCAGGCUGGUGCAGC [hsa-miR-3619-5p] | 27.1 | -36.5 | 56.3
14 | UCAGCAUUCAUUGGCACCAGAGA [hsa-miR-7157-5p] | 30.6 | -18.8 | 13.5
15 | UCAGCUACUACCUCUAUUAGG [hsa-miR-5690] | 105 | 15.5 | -20.3
16 | UCAGCUCCUCUCUACCCACAG [hsa-miR-6736-3p] | 37.4 | -12.2 | 8.25
17 | UCAGCUGGCCCUCAUUUC [hsa-miR-1207-3p] | 15.3 | -48.5 | 65
18 | UCAGGACACUUCUGAACUUGGA [hsa-miR-5000-3p] | 53.5 | 20.7 | -10.1
19 | UCAGGCAAAGGGAUAUUUACAGA [hsa-miR-4742-5p] | 45.1 | 6.44 | -11.1
20 | UCAGGCAGUGUGGGUAUCAGAU [hsa-miR-4692] | 23.4 | -11.4 | 23.2
21 | UCAGGCCAGGCACAGUGGCUCA [hsa-miR-1972] | 30.6 | 17.7 | -4.54
22 | UCAGGCCUCUUUCUACCUU [hsa-miR-4650-5p] | 19.7 | 12.7 | -4.86
23 | UCAGGCUCAGUCCCCUCCCGAU [hsa-miR-484] | 97 | 40.7 | -7.07
